Experiments:
goblet cells = assay: Goblet cells (PAS staining), rabbit dry eye model; type: in vivo, New Zealand white rabbits
Experimental: Eyes of the rabbits including conjunctiva were enucleated, fixed with a specific fixing solution to be embedded into paraffin, and microsectioned, followed by staining and analysis according to the purpose. In this regard, the eyeballs were stained by hematoxylin & eosin (H & E) staining and detachment of corneal epithelial tissue was analyzed. After PAS staining, distribution of goblet cells in the conjunctiva was measured. In addition, after conjunctiva epithelium indentation (impression cytology), PAS staining was performed and distribution of goblet cells was measured.
After 15 days of eye examination, on the 1st day after 16 days of drug treatment, eyes were enucleated, subjected to histopathological analysis, and paraffin blocked. Tissue was stained in a section slide by PAS staining (FIG. 17A). The number of goblet cells in a range of 200 μm^2 was measured and quantified (FIG. 17b).

mouse dry eye model = assay: Corneal fluorescein score, low-humidity+scopolamine-induced dry eye disease model; type: in vivo, C57BL/6
Experimental: Corneal fluorescein score assay and tear volume assay were respectively performed on eyeballs of mice treated with the compositions of Preparation Examples 1, 2, and 3 prepared in Example 7 above by using a low-humidity+scopolamine-induced dry eye disease (DED) model.
When obtaining experimental animals, inspection and quarantines were carried out by referring the microbiological monitoring report of a test system provided by the supplier and observing the appearance of the experimental animals. Animals with no apparent abnormalities were brought into a vivarium and acclimated for 2 weeks in an animal room where tests were conducted. During the quarantine and acclimation period of 2 weeks, health condition and suitability for the experiment were evaluated, and then healthy animals were selected. By using only the animals with no abnormalities during the quarantine and acclimation period, dry eye disease was induced and the degree of corneal damage was evaluated by corneal fluorescein staining, and the test groups were classified by a Z-array method according to clinical scores. A dry eye disease test group consisted of eyeballs with a corneal fluorescein stain score of 7 to 15, and a sham group (normal) consisted of eyeballs not having a corneal fluorescein stains core of 5 or more. […]

[1] = tested on: MUC4 mRNA in human corneal epithelial cells; assay: RT-qPCR of mucin mRNA (MUC4) under high osmotic pressure; type: cell-based; conditions: HCEC, 450 mOsM, 10 to 200 ng/ml, particularly 50 to 200 ng/ml, 24 hours; compared to the untreated group
Experimental: First, the human corneal epithelial cells (HCECs, 5th passage) were seeded onto 6 wells at a density of […]. After 24 hours, the HCECs were pre-treated with a medium with different osmotic pressures (314 and 450 mOsM). After 48 hours of incubation, the cells were treated with the composition of the present disclosure having different concentrations of rhHAPLN1 (0, 5, 10, 20, 50, 100, and 200 ng/ml) and Cyclosporine A (0.1 μM), as a control drug, for 24 hours. Then, the cells were washed and sampled to perform RT-qPCR (FIG. 5A).
Total mRNA was purified from the HCECs by using a Qiagen kit. A cDNA was synthesized by using the iScript cDNA synthesis kit. Subsequently, RT-qPCR was performed and result data was expressed as relative expression levels (fold) (FIGS. 5B to 5C).

[2] = tested on: inflammatory factors (Interleukins, CCL/CXCL family, Chitinase 3-like 1) in human corneal epithelial cells; assay: Human XL cytokine array of culture broth under high osmotic pressure; type: cell-based; conditions: HCEC, 450 mOsM, 24 hours
Experimental: As one of the effects the HAPLN1 protein-containing composition of the present disclosure on the relief of dry eye disease, an effect on the relief of inflammation was verified by using Human XL cytokine array (R&D Systems. ARY022B) based on expression levels of inflammatory factors (Interleukins, CCL/CXCL family, and […]).
First, the human corneal epithelial cells after 4th passage were seeded onto 6 wells and incubated for 24 hours under low osmotic pressure conditions (314 mOsM). Subsequently, the cells were incubated under high osmotic pressure conditions (450 mOsM) for 48 hours and treated with different concentrations (i.e., 10 μg/ml HAPLN 1 μl to 1 ml media->working concentration of 10 ng/ml) of the composition according to the present disclosure. Then, the cells were further incubated for 24 hours, and the culture broth was recovered therefrom, followed by an assay on the expression level of each marker by using Human XL cytokine array (R&D Systems. ARY022B). According to each of the graphs of FIG. 3B illustrating relative expression levels of the markers of the inflammatory factors in the different concentrations of the HAPLN1 protein, it was confirmed that secretion of inflammatory factors such as IL-6, IL-17A, CCL20, CXCL10, CCL5, CD54, and CD176 increased under the high osmotic pressure conditions (450 mOsM).

B1: hyaluronan and proteoglycan link protein 1 (HAPLN1) (protein, listed as Homo sapiens)
chain: MKSLLLLVLISICWADHLSDNYTLDHDRAIHIQAENGPHLLVEAEQAKVFSHRGGNVTLPCKFYRDPTAFGSGIHKIRIKWTKLTSDYLKEVDVFVSMGYHKKTYGGYQGRVFLKGGSDSDASLVITDLTLEDYGRYKCEVIEGLEDDTVVVALDLQGVVFPYFPRLGRYNLNFHEAQQACLDQDAVIASFDQLYDAWRGGLDWCNAGWLSDGSVQYPITKPREPCGGQNTVPGVRNYGFWDKDKSRYDVFCFTSNFNGRFYYLIHPTKLTYDEAVQACLNDGAQIAKVGQIFAAWKILGYDRCDAGWLADGSVRYPISRPRRRCSPTEAAVRFVGFPDKKHKLYGVYCFRAYN
Question: Which results are given for B1?
Answer: number of goblet cells compared to the dry eye disease model (goblet cells; after 16 days of drug treatment, in proportion to the concentration): significantly increased; number of goblet cells compared to Restasis (goblet cells; high concentration (50 μg/ml)): far more increased; CFS level compared with Cyclosporine A (mouse dry eye model; after 11 days): reduced the CFS level more than Cyclosporine A; CFS level (mouse dry eye model; eye drop 0.5, 5, 50 μg/ml, 5 μL b.i.d., regardless of the concentration): consistently decreased; expression level of MUC4 (FIG. 5B) [1]: significantly increased; expression levels of the inflammatory factors, compared with untreated groups ([2]; 10 to 100 ng/ml): lower than that of untreated groups; expression levels of IL-17A, Fas ligand/CD178, FGF-7, FGF-19, Angiogenin, RBP-4, and Chitinase 3-like 1 [2]: reduced to the levels of normal cells; expression levels of various inflammatory factors, relative to normal group (1.0) [2]: decreased to the level of the normal group or less
